Kd data for 1 molecule are collected here from publication PMC9536601 (2022).

This assay has as its target T1, Ad1 hexon, on wild-type human adenovirus type 1 virions (human adenovirus type 1).
T1 chain: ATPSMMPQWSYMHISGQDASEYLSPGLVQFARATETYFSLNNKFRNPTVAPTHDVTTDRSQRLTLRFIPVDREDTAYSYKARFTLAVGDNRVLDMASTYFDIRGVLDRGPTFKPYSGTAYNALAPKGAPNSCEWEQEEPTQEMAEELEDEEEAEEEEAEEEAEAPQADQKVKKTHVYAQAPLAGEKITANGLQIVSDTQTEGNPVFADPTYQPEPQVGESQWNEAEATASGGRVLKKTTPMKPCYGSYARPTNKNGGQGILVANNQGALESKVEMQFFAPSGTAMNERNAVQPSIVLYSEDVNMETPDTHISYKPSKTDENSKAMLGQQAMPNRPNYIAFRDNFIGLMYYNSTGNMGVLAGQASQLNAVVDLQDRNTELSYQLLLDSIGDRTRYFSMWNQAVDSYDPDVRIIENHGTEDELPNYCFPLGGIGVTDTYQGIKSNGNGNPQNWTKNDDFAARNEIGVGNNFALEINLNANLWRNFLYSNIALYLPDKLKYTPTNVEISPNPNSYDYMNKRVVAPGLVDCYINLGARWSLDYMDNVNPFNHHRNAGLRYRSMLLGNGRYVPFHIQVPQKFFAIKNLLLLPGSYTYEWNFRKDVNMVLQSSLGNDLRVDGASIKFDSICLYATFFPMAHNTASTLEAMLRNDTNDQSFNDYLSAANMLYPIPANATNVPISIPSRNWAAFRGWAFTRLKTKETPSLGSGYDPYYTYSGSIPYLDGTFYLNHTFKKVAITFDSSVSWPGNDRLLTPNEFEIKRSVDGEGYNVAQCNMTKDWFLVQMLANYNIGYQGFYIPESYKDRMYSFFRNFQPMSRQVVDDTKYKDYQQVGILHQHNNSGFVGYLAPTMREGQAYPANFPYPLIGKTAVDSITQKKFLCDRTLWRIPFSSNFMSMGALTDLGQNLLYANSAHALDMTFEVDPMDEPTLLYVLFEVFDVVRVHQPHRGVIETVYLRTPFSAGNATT
The assay can be described thus: SPR. (In SPR one partner is held on a chip, and binding of the other changes the refractive index at the surface.)

B1: mouse coagulation factor X (natural protein)
chain 1: ANSFFEEFKKGNLERECMEEICSYEEVREIFEDDEKTKEYWTKYKDGDQCESSPCQNQGACRDGIGGYTCTCSEGFEGKNCELFVRKLCRLDNGDCDQFCREEQNSVVCSCASGYFLGNDGKSCISTAPFPCGKITTGRR
chain 2: VALNTSDSELDLEDALLDEDFLSPTENPIELLNLNETQPERSSDDLVRIVGGRECKDGECPWQALLINEDNEGFCGGTILNEFYILTAAHCLHQARRFKVRVGDRNTEKEEGNEMVHEVDVVIKHNKFQRDTYDYDIAVLRLKTPITFRMNVAPACLPQKDWAESTLMTQKTGIVSGFGRTHEKGRQSNILKMLEVPYVDRNTCKLSTSFSITQNMFCAGYEAKLEDACQGDSGGPHVTRFKNTYYVTGIVSWGEGCARKGKYGIYTKVTTFLKWIDRSMKARVGPTAETPRTAGPPN
modifications: gamma-carboxylated glutamate residues in the Gla domain
Turning to B1, the Kd (as a rule, the free concentration of one partner at which half of the binding sites on the other are occupied at equilibrium, for simple one-to-one binding) came to 0.31 nM.
